2 substances from PMC11331516 can be followed below.

In assay [1] the target is Bovine κ-casein (bovine). Briefly: PFG NMR diffusion; κ-casein 20% (w/v) in 100% D2O, 298 K; MODSTE pulse sequence, td 50-800 ms; gel-like network.
The target of assay [2] is Bovine κ-casein (bovine). In words: PFG NMR diffusion; κ-casein 0.1 to 10% (w/v) in 100% D2O, pH 7.0, 298 K; STE and MODSTE pulse sequences, td 50-800 ms; fresh samples; below the threshold of gel formation.
Assay [3] deals with Bovine κ-casein labelled with EDANS-C2-maleimide (donor) or DABCYL-C2-maleimide (acceptor) (bovine). Briefly: FRET or BRET; as the FRET titration but with 5 mM sodium phosphate buffer added; data not shown. Background: Bioluminescence resonance energy transfer reports proximity on the nanometre scale.
For assay [4] the target is unchanged. Briefly: FRET or BRET; time-resolved FRET titration; donor (EDANS) κ-casein constant at 0.01% (5 μM), acceptor (DABCYL) κ-casein 0.01-0.38% (5-200 μM); in H2O, 293 K; indefinite isodesmic association, adding a monomer to an associate.

In the assay with Bovine κ-casein (bovine) [1], Bovine κ-casein (natural protein) came in with a lifetime of molecules within the gel network (20% solution) of 0.98 s and a percent of molecules in the gel network (20% solution) of 34%. Further, in the assay with Bovine κ-casein (bovine) [2], the fraction of molecules within the associate, pmin(0) (0.5% solution) came out at 0.23; the lifetime of molecules within the associate (0.5% solution) is 0.53 s; the stoichiometry N (as a rule, the number of molecules, sites or subunits per partner or assembly) was < 31 molecules.
As for “Bovine κ-casein labelled with EDANS-C2-maleimide (donor) or DABCYL-C2-maleimide (acceptor) (natural protein)”, the fold decrease of the equilibrium association constant with 5 mM sodium phosphate buffer against the aqueous solution in assay [3] amounted to 3 fold. For the same substance, in assay [4], the Kd – broadly, a measure of binding affinity in units of concentration – amounted to 9.5 µM.
